The koff is the rate constant with which the complex falls apart.

For assay [1], the target named is T1, recombinant dimeric c-Met (R&D systems, 358-MT/CF) (human, UniProt P08581 25-932).
T1 construct: Bought product; also called Fc-Met; recombinant c-Met
Kind of assay: SPR, Fab-containing periplasmic extract over immobilised c-Met, dissociation 2 min. Here is the method:
HGF-competing clones were sequenced in the VH and the VL regions and divided into VH families based on the sequence of the CDR3 in the VH. These VH families were further tested with Surface Plasmon Resonance (SPR) for dissociation (koff) and recognition of SEMA-PSI or the extracellular domain of c-Met (Decoy). Between 1000-2000 RU of dimeric c-Met, SEMA-PSI or Decoy c-Met was immobilised on a VIA chip with amine coupling in sodium acetate buffer (pH 4.5). The Fab-containing peris were added with a flow rate of 30 μl/min and Fabs were considered to be binding if an increase of the RU was observed. The koff was measured for 2 minutes for each sample.
A general note: SPR reads the build-up and loss of mass on a sensor chip optically.

Assay [2] deals with T1, recombinant dimeric c-Met (R&D systems, …). Put plainly: SPR, periplasmic Fab over Fc-Met (around 3000 RU) on CM5 chip. On the procedure: The clones were then tested for their dissociation constants by Surface Plasmon Resonance. Around 3000 RU of Fc-Met was immobilized directly onto a CM5 chip to obtain a clear binding profile from the periplasmic extracts. Clones with an improved off-rate were sent for sequencing.

T1 sequence (P08581 25-932 limits assumed): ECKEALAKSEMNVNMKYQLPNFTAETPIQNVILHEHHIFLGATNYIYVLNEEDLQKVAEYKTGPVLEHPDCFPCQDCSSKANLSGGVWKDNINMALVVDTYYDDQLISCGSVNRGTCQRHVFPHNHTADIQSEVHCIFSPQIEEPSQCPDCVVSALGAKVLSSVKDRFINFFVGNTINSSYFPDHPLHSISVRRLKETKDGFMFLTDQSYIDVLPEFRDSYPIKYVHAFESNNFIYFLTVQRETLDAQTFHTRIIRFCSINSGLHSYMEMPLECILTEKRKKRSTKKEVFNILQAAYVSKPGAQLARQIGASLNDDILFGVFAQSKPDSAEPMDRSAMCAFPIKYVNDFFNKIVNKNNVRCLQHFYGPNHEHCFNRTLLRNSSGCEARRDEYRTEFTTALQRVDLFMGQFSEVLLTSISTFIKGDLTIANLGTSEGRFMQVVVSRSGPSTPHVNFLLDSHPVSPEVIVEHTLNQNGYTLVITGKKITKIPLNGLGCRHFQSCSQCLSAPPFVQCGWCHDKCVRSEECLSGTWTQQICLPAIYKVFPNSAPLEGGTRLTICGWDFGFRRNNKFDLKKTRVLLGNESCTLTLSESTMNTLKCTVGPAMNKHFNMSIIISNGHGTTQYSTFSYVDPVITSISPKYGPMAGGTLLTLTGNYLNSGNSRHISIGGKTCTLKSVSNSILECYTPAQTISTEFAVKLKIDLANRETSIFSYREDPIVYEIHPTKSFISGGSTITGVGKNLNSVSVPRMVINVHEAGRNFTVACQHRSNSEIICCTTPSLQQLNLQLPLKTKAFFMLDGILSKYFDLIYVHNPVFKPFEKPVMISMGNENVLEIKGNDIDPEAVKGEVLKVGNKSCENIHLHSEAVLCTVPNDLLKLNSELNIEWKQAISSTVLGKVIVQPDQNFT

B1: 12G4 Fab (Fab, V domains shown)
VH: QLQLVESGGGMAQPGGSLKLSCAASGFTFDDYAMTWVRQAPGKGLEWLSTISWNDINTYYAESMKDRFTISRDNAKNTLYLQMNSLESEDTAVYYCAKRRDNYYGTSGEYDYWGQGTQVTVSS
VL: QSALTQPPSVSGTLGKTVTISCAGTSSDIGNYNYVSWYQQLPGTAPKLLIYEVNKRPSGIPDRFSGSKSGNTASLSISGLQSEDEADYYCASYRSSNNVVFGGGTKLTVL
notes: Fab from the phage display library, tested as periplasmic extract
In the case of B1, the koff in assay [1] stood at 0.00013 s⁻¹.

B2: 13E6 Fab (Fab, V domains shown)
VH: QVQLQESGGDLVQPGGSLRLSCAASGFTFDDYVMNWVRQAPGKGLEWISAINWNGGSTYYAESMKGRFTISRDNAKNTLYLQMYSLQSDDTAVYYCVKDTVVSGNGYWGQGTQVTVSS
VL: QSVLTQPPSVSGTLGKTVTISCAGTSSDIGDYNYVSWYQQLPGTAPKLLIYDVNKRASGIPDRFSGSKSGNTASLSISGLQSEDEADYYCASYRSRNDYAFGGGTKLTVL
notes: as for B1
Turning to B2, the koff in assay [1] was determined as 0.00065 s⁻¹.

B3: 48A1 VL shuffled Fab (Fab, V domains shown)
VH: EVQLVQPGVELRNPGASVKVSCKASGYIFTMNSIDWVRQAPGQGLEWMGRIDPEDGGTKYAQKFQGRVTFTADTSTSTAYVELNSLRSEDTAVYYCARVDDYYLGYDYWGQGTQVTVSS
VL: EIVMTQSPSSVTASAGEKVTINCKSSQSVLWRSNQKNYLAWYQQRLGQSPRLLISWASIRESGVPDRFSGSGSTTDFTLTISSFQPEDAAVYYCQQGYSFPYTFGSGTRLEIK
notes: VL-shuffled Fab with the 38H10 heavy chain, periplasmic extract; The printed 48A1 VK reads the same as the 38H10 VK
Take B3: the koff in assay [2] amounted to 0.00081 s⁻¹.

B4: 48A11 VL shuffled Fab (Fab, V domains shown)
VH: EVQLVQPGVELRNPGASVKVSCKASGYIFTMNSIDWVRQAPGQGLEWMGRIDPEDGGTKYAQKFQGRVTFTADTSTSTAYVELNSLRSEDTAVYYCARVDDYYLGYDYWGQGTQVTVSS
VL: DIVMTQTPSSVTAAVGEKVAINCKSSQSVLYNPNQKSYLAWYQQRPGQSPRLLIYWASTRESGVPDRFSGSGSTTDFALTISSFQPEDAAVYYCQQGYSFPYSFGSGTRLEIR
notes: VL-shuffled Fab with the 38H10 heavy chain, periplasmic extract
In the case of B4, in assay [2], the koff worked out at 0.00025 s⁻¹.

B5: 48D2 VL shuffled Fab (Fab, V domains shown)
VH: EVQLVQPGVELRNPGASVKVSCKASGYIFTMNSIDWVRQAPGQGLEWMGRIDPEDGGTKYAQKFQGRVTFTADTSTSTAYVELNSLRSEDTAVYYCARVDDYYLGYDYWGQGTQVTVSS
VL: DIVMTQTPSSVTASAGEKVTINCKSSQSVLYNSNQKNYLAWYQQRLGQSPRLLIYWASTRESGVPDRFSGSGSTTDFTLTISSFQPEDAAVYYCQQGWSFPYTFGSGTRLEIK
notes: as for B4
B5: in assay [2], the koff was found to be 0.00013 s⁻¹.

B6: 48D7 VL shuffled Fab (Fab, V domains shown)
VH: EVQLVQPGVELRNPGASVKVSCKASGYIFTMNSIDWVRQAPGQGLEWMGRIDPEDGGTKYAQKFQGRVTFTADTSTSTAYVELNSLRSEDTAVYYCARVDDYYLGYDYWGQGTQVTVSS
VL: DIVMTQTPASVTASAGEKVTINCKSSQSVLFSSNQKNYLAWYQQRVGQSPRLLIYWASTRESGVPDRFSGSGSTTDFTLTISNFQPEDAAVYYCQQGYSFPYSFGSGTRLEIR
notes: as for B4
With B6, in assay [2], the koff was 0.00025 s⁻¹.

B7: 48E2 VL shuffled Fab (Fab, V domains shown)
VH: EVQLVQPGVELRNPGASVKVSCKASGYIFTMNSIDWVRQAPGQGLEWMGRIDPEDGGTKYAQKFQGRVTFTADTSTSTAYVELNSLRSEDTAVYYCARVDDYYLGYDYWGQGTQVTVSS
VL: DVVMTQSPSSVTASAGEKVTINCKSSQSVLWSSNQKNYLAWYQQRVGQSPRLLIYWASTRESGVPDRFSGSGSTTDFTLTISNFQPEDAAVYYCQQGYSFPYSFGSGTRLEIR
notes: as for B4
For B7, the koff in assay [2] amounted to 0.00029 s⁻¹.

B8: 48C8 VL shuffled Fab (Fab, V domains shown)
VH: EVQLVQPGVELRNPGASVKVSCKASGYIFTMNSIDWVRQAPGQGLEWMGRIDPEDGGTKYAQKFQGRVTFTADTSTSTAYVELNSLRSEDTAVYYCARVDDYYLGYDYWGQGTQVTVSS
VL: DIQLTQSPSSVTVSVGEKVTINCKSSQSVLYNSNQKNYLAWYQQRLGQSPRLLIYWASTRESGVPDRFSGSGSTTDFTLTISSFQPEDAAVYYCQQGWSFPYTFGSGTRLEIK
notes: as for B4
As to B8, the koff in assay [2] amounted to 0.00033 s⁻¹.

B9: 48B8 VL shuffled Fab (Fab, V domains shown)
VH: EVQLVQPGVELRNPGASVKVSCKASGYIFTMNSIDWVRQAPGQGLEWMGRIDPEDGGTKYAQKFQGRVTFTADTSTSTAYVELNSLRSEDTAVYYCARVDDYYLGYDYWGQGTQVTVSS
VL: DVVMTQSPSSVTASVGEKVTINCKSSQSVLYTSNHKNYLAWYQQRLGQSPRLLIYWASTRESGVPDRFSGSGSTTDFTLTISSFQPEDAAVYYCQQGWSFPYSFGSGTRLEIK
notes: as for B4
For B9, the koff in assay [2] was found to be 0.00033 s⁻¹.

B10: 48E5 VL shuffled Fab (Fab, V domains shown)
VH: EVQLVQPGVELRNPGASVKVSCKASGYIFTMNSIDWVRQAPGQGLEWMGRIDPEDGGTKYAQKFQGRVTFTADTSTSTAYVELNSLRSEDTAVYYCARVDDYYLGYDYWGQGTQVTVSS
VL: DIQMTQSPSSVTASAGEKVTINCKSSQSVLYNSNQKNYLAWYQQRLGQSPRLLIYWASTRESGVPDRFSGSGSTTDFTLTISSFQPEDAAVYYCQQGWSFPYTFGSGTRLEIK
notes: as for B4
As for B10, the koff in assay [2] stood at 0.00019 s⁻¹.

B11: 48B6 VL shuffled Fab (Fab, V domains shown)
VH: EVQLVQPGVELRNPGASVKVSCKASGYIFTMNSIDWVRQAPGQGLEWMGRIDPEDGGTKYAQKFQGRVTFTADTSTSTAYVELNSLRSEDTAVYYCARVDDYYLGYDYWGQGTQVTVSS
VL: DIQLTQSPSSVTASAGEKVTINCKSSQSVLYGSNQKNYLAWYQQRLGQSPRLLIYWASTRESGVPDRFSGSGSTTDFTLTISSFQPEDAAVYYCQQGWSFPYTFGSGTRLEIK
notes: as for B4
Consider B11, for which, in assay [2], the koff turned out to be 0.00012 s⁻¹.

B12: 36C4Q Fab (Fab, V domains shown)
VH: QVQLVESGPGLVKPSQTLSLTCAVSGGSITTNYYYWSWIRQSPGKGLEWMGVIAYDGSTDYSPSLKSRTSISRDTSKNQFSLQLSSVTPEDTAVYYCARDVRVIATGWATANALDAWGQGTQVTVSS
VL: QSVLTQPPSVSGSPGKTVTISCAGTSSDVGYGNYVSWYQQLPGTAPKLLIFAVSYRASGIPDRFSGSKSGNTAFLTISGLQSEDEADYYCASYRSSNNAAVFGGGTHLTVL
Turning to B12, in assay [2], the koff was found to be 0.00017 s⁻¹.

B13: 49D3 VL shuffled Fab (Fab, V domains shown)
VH: QVQLVESGPGLVKPSQTLSLTCAVSGGSITTNYYYWSWIRQSPGKGLEWMGVIAYDGSTDYSPSLKSRTSISRDTSKNQFSLQLSSVTPEDTAVYYCARDVRVIATGWATANALDAWGQGTQVTVSS
VL: LPVLTQPPSVSGTLGKTLTISCAGTSSDVGYGNYVSWYQQLPGTAPKLLIYAVSYRASGIPDRFSGSKSGNTASLSISGLQSEDEADYYCASYRSSNKNAVFGGGTHLTVL
notes: VL-shuffled Fab with the 36C4Q heavy chain, periplasmic extract
Consider B13, for which, in assay [2], the koff was determined as 0.00082 s⁻¹.

B14: 49A11 VL shuffled Fab (Fab, V domains shown)
VH: QVQLVESGPGLVKPSQTLSLTCAVSGGSITTNYYYWSWIRQSPGKGLEWMGVIAYDGSTDYSPSLKSRTSISRDTSKNQFSLQLSSVTPEDTAVYYCARDVRVIATGWATANALDAWGQGTQVTVSS
VL: QSALTQPPSVSGSPGKTVTISCAGTSSDVGYGNYVSWYQKLPGTAPKLLIYAVSYRASGIPDRFSGSRSGNTASLTISGLQSEDEADYYCASYRITNRHSVFGGGTHLTVL
notes: as for B13
Turning to B14, the koff in assay [2] was 0.00048 s⁻¹.

B15: 49D2 VL shuffled Fab (Fab, V domains shown)
VH: QVQLVESGPGLVKPSQTLSLTCAVSGGSITTNYYYWSWIRQSPGKGLEWMGVIAYDGSTDYSPSLKSRTSISRDTSKNQFSLQLSSVTPEDTAVYYCARDVRVIATGWATANALDAWGQGTQVTVSS
VL: QSVLTQPPSVSGTLGKTLTISCAGTSTDVGYGNYVSWYQQLPGTAPKLLIFAVSYRASGIPDRFSGSKSGNTAFLTISGLQSEDEADYYCASYRSSNNAAVFGGGTHLTVL
notes: as for B13
With B15, the koff in assay [2] was 0.00017 s⁻¹.

B16: 49A1 VL shuffled Fab (Fab, V domains shown)
VH: QVQLVESGPGLVKPSQTLSLTCAVSGGSITTNYYYWSWIRQSPGKGLEWMGVIAYDGSTDYSPSLKSRTSISRDTSKNQFSLQLSSVTPEDTAVYYCARDVRVIATGWATANALDAWGQGTQVTVSS
VL: QSVLTQPPSVSGSPGKTVTISCAGTSSDVGYGNYVSWYQQLPGTAPKLLIFAVSYRASGIPDRFSGSKSGNTAFLTISGLQSEDEADYYCASYRSSNNAAVFGGGTHLTVL
notes: as for B13
For the molecule B16, the koff in assay [2] was found to be 0.00017 s⁻¹.

B17: 49G3 VL shuffled Fab (Fab, V domains shown)
VH: QVQLVESGPGLVKPSQTLSLTCAVSGGSITTNYYYWSWIRQSPGKGLEWMGVIAYDGSTDYSPSLKSRTSISRDTSKNQFSLQLSSVTPEDTAVYYCARDVRVIATGWATANALDAWGQGTQVTVSS
VL: QSALTQPPSVSGTLGKTLTISCAGTSTDVGYGNYVSWYQQLPGTAPKLLIFAVSYRASGIPDRFSGSKSGNTAFLTISGLQSEDEADYYCASYRSSNNAAVFGGGTHLTVL
notes: as for B13
As for B17, the koff in assay [2] is 0.00019 s⁻¹.

B18: 49E11 VL shuffled Fab (Fab, V domains shown)
VH: QVQLVESGPGLVKPSQTLSLTCAVSGGSITTNYYYWSWIRQSPGKGLEWMGVIAYDGSTDYSPSLKSRTSISRDTSKNQFSLQLSSVTPEDTAVYYCARDVRVIATGWATANALDAWGQGTQVTVSS
VL: QAVLTQPPSVSGTLGKTVTISCAGTSSDVGYGNYVSWYQKLPGTAPKLLIYAVSYRASGIPDRFSGSKSGNTASLTISGLQSEDEADYHCASYRTSNNVAVFGGGTKLTVL
notes: as for B13
On to B18, for which the koff in assay [2] is 0.00063 s⁻¹.

B19: 49C4 VL shuffled Fab (Fab, V domains shown)
VH: QVQLVESGPGLVKPSQTLSLTCAVSGGSITTNYYYWSWIRQSPGKGLEWMGVIAYDGSTDYSPSLKSRTSISRDTSKNQFSLQLSSVTPEDTAVYYCARDVRVIATGWATANALDAWGQGTQVTVSS
VL: QSALTQPPSVSGTLGKTVTISCAGTSSDVGYGNYVSWYQKLPGTAPKLLIYAVTYRASGIPDRFSGSKSGNTASLTISGLQSEDEADYYCASYRRSTNVGVFGGGTHLTVL
notes: as for B13
For the molecule B19, the koff in assay [2] worked out at 0.00018 s⁻¹.

Values taken from patent publication US20120148607A1 (ARGEN X N V, published 2012).
